According to US20240287194A1, “Targeting Extracellular Matrix Proteins to Regulate NK Cell Function in Peripheral Tissues” (The General Hospital Corporation, priority 2021, published 2024):

B1: collagen III: collagen III (Human placenta, Sigma), dermal ECM protein (protein, UniProt P02461 154-1221, looked up)
Collagen alpha-1(III) chain: QYDSYDVKSGVAVGGLAGYPGPAGPPGPPGPPGTSGHPGSPGSPGYQGPPGEPGQAGPSGPPGPPGAIGPSGPAGKDGESGRPGRPGERGLPGPPGIKGPAGIPGFPGMKGHRGFDGRNGEKGETGAPGLKGENGLPGENGAPGPMGPRGAPGERGRPGLPGAAGARGNDGARGSDGQPGPPGPPGTAGFPGSPGAKGEVGPAGSPGSNGAPGQRGEPGPQGHAGAQGPPGPPGINGSPGGKGEMGPAGIPGAPGLMGARGPPGPAGANGAPGLRGGAGEPGKNGAKGEPGPRGERGEAGIPGVPGAKGEDGKDGSPGEPGANGLPGAAGERGAPGFRGPAGPNGIPGEKGPAGERGAPGPAGPRGAAGEPGRDGVPGGPGMRGMPGSPGGPGSDGKPGPPGSQGESGRPGPPGPSGPRGQPGVMGFPGPKGNDGAPGKNGERGGPGGPGPQGPPGKNGETGPQGPPGPTGPGGDKGDTGPPGPQGLQGLPGTGGPPGENGKPGEPGPKGDAGAPGAPGGKGDAGAPGERGPPGLAGAPGLRGGAGPPGPEGGKGAAGPPGPPGAAGTPGLQGMPGERGGLGSPGPKGDKGEPGGPGADGVPGKDGPRGPTGPIGPPGPAGQPGDKGEGGAPGLPGIAGPRGSPGERGETGPPGPAGFPGAPGQNGEPGGKGERGAPGEKGEGGPPGVAGPPGGSGPAGPPGPQGVKGERGSPGGPGAAGFPGARGLPGPPGSNGNPGPPGPSGSPGKDGPPGPAGNTGAPGSPGVSGPKGDAGQPGEKGSPGAQGPPGAPGPLGIAGITGARGLAGPPGMPGPRGSPGPQGVKGESGKPGANGLSGERGPPGPQGLPGLAGTAGEPGRDGNPGSDGLPGRDGSPGGKGDRGENGSPGAPGAPGHPGPPGPVGPAGKSGDRGESGPAGPAGAPGPAGSRGAPGPQGPRGDKGETGERGAAGIKGHRGFPGNPGAPGSPGPAGQQGAIGSPGPAGPRGPVGPSGPPGKDGTSGHPGPIGPPGPRGNRGERGSEGSPGHPGQPGPPGPPGAPGPCCGGVGAAAIAGIGGEKAGGFAPYYG

Assays:
Assay type in all cases: cell-based, mice
[1] = tested on: Ly49H^+ splenic cNK cells; test: Splenic cNK cell co-culture with m157-MEF in the presence of ECM proteins (CD107a, IFNγ flow cytometry); conditions: for Ly49H+ cNK cell degranulation (CD107a): 9 and 24 hours co-culture with m157-MEF, ECM coated 20 μg/cm2
Method: (§1) Single-cell suspensions from all samples were prepared by straining through a 70 μm filter. 2.4G2 supernatant treated cells were stained in 1×PBS/2% FCS/5 mM EDTA with the appropriate surface antibodies (Table 2) for 30 minutes at 4° C., washed and analyzed by flow cytometry. For intracellular staining, cells were fixed and permeabilized using True-Nuclear Transcription Buffer set (Biolegend, catalog no. 424401) according to the manufacturer's protocol then incubated with appropriate antibodies (Table 2) for 60 min at RT, washed and analyzed by flow cytometry. For in vitro signaling experiments, following the specified time points, cells were fixed with an equal volume of pre-warmed 1×aldehyde based fixation buffer (Biolegend, catalog no. 420801) for 20 min at RT. Fixed cells were permeabilized by drop-wise addition of chilled methanol-based solution True-Phos Perm Buffer (Biolegend, catalog no. 425401) while mixed on a vortex. Cells were stored in-20° C. and dark for 1-3 days before washing them two times with ˜3 mL of 1×PBS/2% FCS/5 mM EDTA. Cells were subsequently stained with appropriate antibodies against surface markers and specific phosphorylated signaling proteins (Table 2) for 60 min at RT, washed and analyzed by flow cytometry. Cells were assayed on a BD LSRFortessa X-20 flow cytometer (BD Bioscience, Billerica, MA, USA) and data were analyzed using FlowJo software Version 10 (Tree Star, Ashlad, OR, USA). NK cells in WT non-reporting mice were identified as CD3^− NK1.1^+NKp46^+.
(§2) For in vitro experiments in the presence of ECM components, Collagen I (Rat tail, Sigma, catalog no. 08-115), collagen III (Human placenta, Sigma, catalog no. C4407), collagen IV (Mouse, Sigma, catalog no. C0543), Elastin (Mouse lung, Sigma, catalog no. E6402), Laminin (Mouse, Thermo Fisher, catalog no. 23017015) and Fibronectin (Rat plasma, Sigma, catalog no. F0635) were diluted in 1×PBS and coated at 20 μ ENREF 45 g/cm^2 in a 24 well tissue culture plate for 30 minutes at RT with gentle shaking followed by overnight at 4° C. Spleens from Ncr1^iCre, ROSA^mT-mG, WT or Lair1^−/− mice were harvested as described above. Then, 5×10^6 splenocytes resuspended in RPMI 10% FBS/1% P/S/20 mM Glutamine were mixed with 20 μg of respective ECM protein per well and were incubated at RT for 10 minutes. Splenocytes and ECM mix were plated onto the ECM-coated well and were incubated at 37° C./5% CO2 for 2 hours (short ECM exposure) or 17 hours (long ECM exposure). At the end of the incubation, 1×10^5 MEF (WT or m157) cells were added to each well to obtain a 50:1 splenocyte:MEF ratio. For cell signaling experiments, hydrogen peroxide (H2O2) at a final concentration of 2.5 mM or 1×10^5 MEF-m157 cells were added to each well except in “0 min” wells which were unstimulated and fixed immediately. Splenocytes were stimulated with 2.5 mM H2O2 for 2 min and 5 min or were co-cultured with MEF-m157 for 30 min and 60 min (signaling) or 7 hours (CD107a and IFN[…]) at 37° C./5% CO2. Splenocytes and MEF in co-culture were supplemented with mIL-12 (10 ng/mL, Biolegend, catalog no. 577002), mIL-15 (1 ng/mL, Shenandoah Biotechnology, catalog no. 200-07) and hIL-2 (Biolegend, catalog no. 589104; only long ECM exposure) as well as for CD107a/IFN experiments. 1 μL of anti-CD107a-BV421 (1D4B, Biolegend, catalog no. 121618), 1×Brefeldin A (Biolegend, catalog no. 420601) and 1×Monensin (Biolegend, catalog no. 420701) were added. Following the co-culture, cells were washed with 1×PBS/2% FCS/5 mM EDTA and the pellet was resuspended in 2.4G2 blocking solution before flow cytometry staining.

splenic cNK cells [2] = test: Phospho-signaling in splenic cNK cells stimulated with H2O2 in the presence of ECM proteins; conditions: baseline and 2- and 5-minute exposure to H2O2
Method: as §1, §2

splenic cNK cells [3] = test: LEGENDplex chemokine release by splenic NK cells co-cultured with m157-MEF on ECM proteins; conditions: for CCL5 release by splenic cNK cells / CXCL10 release by splenic cNK cells: 12 hours
Method: NK cells purified from spleens under sterile conditions were used for LEGENDplex experiments. Spleens from 8-9-week-old C57BL/6 female WT mice were harvested and mashed through a 70 μm filter. Cells were resuspended in RBC lysis for two minutes and washed with 1×PBS/2% FCS/5 mM EDTA. NK cells were enriched by negative selection using an NK cell isolation kit (Milteny Biotec, catalog no. 130-115-818) and magnetic LS columns (Milteny Biotec, catalog no. 130-042-401) according to the manufacturer's instructions. Enrichment of isolated NK cells was confirmed by flow cytometry and was 88-90% CD3^−NK1.1^+NKp46^+ cells. Enriched NK cells were resuspended in RPMI 1640 media supplemented with 10% FBS and 1% P/S.
ECM protein coating on wells was performed as previously described. 1×10^5 enriched splenic NK cells was mixed with 20 μg of respective ECM protein per well in RPMI 1640/10% FBS/1% P/S/20 mM Glutamine and incubated at RT for 10 minutes. NK cells and ECM mix were plated onto the ECM-coated well and were incubated at 37° C./5% CO2 for 2 hours. At the end of the incubation, 1×10^5 MEF (WT or m157) cells were added to the respective wells to obtain a 1:1 NK:MEF ratio. NK cells and MEF were co-cultured at 37° C. 5% CO2 for 24 hours supplemented with mIL-12 (10 ng/mL, Biolegend, catalog no. 577002) and mIL-15 (1 ng/ml, Shenandoah Biotechnology, catalog no. 200-07-100 μg). The supernatant was collected at 12- and 24-hour intervals, centrifuged to remove cells/cell debris and subsequently frozen at −80° C. until further use. Quantification of murine cytokines and chemokines (CCL2, CCL5, CXCL9, CXCL10) in supernatants was performed with LEGENDplex kits (Biolegend, catalog nos. 740451, 740622) according to manufacturer's instructions. In brief, a mix of capture beads with distinct size and fluorescence was incubated with undiluted S/N or standard dilutions for 2 hours at RT with constant shaking. Beads were washed, a biotinylated detection antibody was added and the plate was incubated for 1 hour at RT with constant shaking. The streptavidin-PE conjugate was added and further incubated for 30 minutes at RT on a shaker. Beads were washed and subsequently acquired on a BD LSRFortessa X-20 flow cytometer. Analysis and quantification of the results were done using LEGENDplex data analysis software (BioLegend). Quantification was reported as pg/ml for CCL2, CCL5, CXCL10 and as MFI for CXCL9.

splenic cNK cells [4] = test: Phospho-signaling in splenic cNK cells co-cultured with m157-MEF in the presence of ECM proteins
Method: as §1, with “Cells were stored in-20° C. and dark for 1-3 days before washing them two times with ˜3 mL of 1×PBS/2% FCS/5 mM EDTA.” left out, “NK cells in WT non-reporting mice were identified as CD3^− NK1.1^+NKp46^+.” left out

Molecule | Ly49H+ cNK cell degranulation (CD107a) [1] | IFNγ production by Ly49H+ cNK cells ([1]; exposed to m157-MEF, 9 and 24 hours) | pNFκB in NK cells (splenic cNK cells [2]) | pSTAT3 in NK cells (splenic cNK cells [2]) | CCL5 release by splenic cNK cells (splenic cNK cells [3]) | CXCL10 release by splenic cNK cells (splenic cNK cells [3]) | CCL2 release by splenic cNK cells (splenic cNK cells [3]; 24 hours) | CXCL9 release by cNK cells (splenic cNK cells [3]; 24 hours) | phospho-NFκB (p65) in splenic cNK cells (splenic cNK cells [4]; after 30- and 60-minutes exposure to m157-MEF) | phospho-NFκB (p65) in splenic cNK cells (splenic cNK cells [4]; at baseline)
collagen I: Collagen I (Rat tail, Sigma), dermal ECM protein | potently blocked | suppressed | suppressive effect | suppressive effect | suppressed | significantly induced | significantly induced | – | – | –
B1 | potently blocked | – | increased | – | suppressed | significantly induced | significantly induced | induced | highly amplified | significantly induced
